According to patent publication US20230026627A1, “Compositions and Methods of Manufacturing Star Polymers for Ligand Display and/or Drug Delivery” (Vaccitech North America, Inc., priority 2019, published 2023):

Key:
[1] = Turbidity (OD at 490 nm) / aggregation in aqueous buffer (PBS); type: physicochemical; settings: turbidity (OD at 490 nm) >0.05 indicates aggregating
Excerpt: Soluble: Capable of becoming molecularly or ionically dispersed in a solvent to form a homogeneous solution. […] Solubility can be determined by visual inspection, by turbidity measurements or by dynamic light scattering.
It was unknown a priori what composition and magnitude of charge would be needed to fully solubilize polymer arms with high densities of amphiphilic or hydrophobic drug (D) molecules. Therefore, we attached high densities (˜10 mol %) of the small molecule aromatic heterocycle, 2BXy, which is a TLR-7/8a, to ˜40 kDa HPMA-based polymer arms (A) through a reactive monomer (E), wherein the polymer arm (A) comprised HPMA monomers as the majority hydrophilic monomer (B) and optionally included either 10 or 20 mol % charged monomers (C) comprising either negatively or positively charged functional groups.

[2] = Hydrodynamic radius (Rh), dynamic light scattering; type: physicochemical; settings: Table 5

Substance: N3-poly[(HPMA-co-Ma-b-Ala-2BXy)-b-HPMA]-Pg [Compound 62]
- Turbidity, pH 7.4 ([1]; Table 5, di-block architecture): 0.039
- Size, Rh (nm) [2]: 6.6 nm

Substance: N3-poly(HPMA-co-Ma-b-Ala-2BXy)-Pg [Compound 46]
- Turbidity, pH 7.4 ([1]; Table 5, di-block architecture): Aggregate
- Size, Rh (nm) [2]: >1000 nm

Substance: PAMAM-g-poly[(HPMA-co-Ma-b-Ala-2BXy)-b-HPMA]-Pg [Compound 78]
- Turbidity, pH 7.4 ([1]; Table 5, di-block architecture): 0.041
- Size, Rh (nm) [2]: 12.9 nm

Substance: N3-poly(HPMA-co-Ma-b-Ala-2BXy-co-Ma-b-Ala-COOH)-Pg [Compound 48]
- Turbidity, pH 7.4 ([1]; Table 4, charged monomers, ~10 mol % TLR-7/8a): 0.043
